Publication PMC3633684

Substrate: CC(=O)Oc1ccc([N+](=O)[O-])cc1
Experiment: purified protein
Assay type: biochemical, Caulobacter vibrioides
Conditions: 40 mM phosphate buffer pH 7.4, 37 °C, 0.2 μM HfsH

B1: HfsH (Caulobacter vibrioides CB15) (protein)
chain: MPMEFEKVDAYEPDRSLKGKLRRRLIRLAHRRPAKVALERPMVSFSFDDAPATACEAGARALEARGLRGTYYFAAGLTGRDGPMGRYATGEDARRLHEAGHEIACHTYSHLDCGQSSQTETLADVDRNAESLAAWGAGDPVSFAYPYGDVAAPAKTALSGRFKTLRALHHGLITDGADLNQTPAVGIEGEDGETVAKAWLDKAKARKAWLILYTHDVAGQPSQWGCTTEALERLIDRALADGFDVVTVAEGSRRIGL
Which Km does the source give for B1 here?
Its Km is 11.74 mM.
